The source of these data is paper PMC12098889, “Structural insight into PIF6-mediated red light signal transduction of plant phytochrome B” (Cell Discovery, 2025).

Conditions in all cases: both partners purified
For one test, the target named is T1, phyB^Y276H, full length (Arabidopsis, UniProt P14713 1-1172, Y276H, PΦB chromophore covalently bound).
T1 construct: Arabidopsis phytochrome B, residues 1-1172, At2g18790, with Y276H; also called constitutively active mutant phyB^Y276H; source: E. coli BL21(DE3), co-expressed with HO1 and HY2, purified (Ni-NTA, anti-FLAG resin, Source Q); not shown: 3× Flag ([residues removed]), N-terminal, kept
T1 sequence (looked up): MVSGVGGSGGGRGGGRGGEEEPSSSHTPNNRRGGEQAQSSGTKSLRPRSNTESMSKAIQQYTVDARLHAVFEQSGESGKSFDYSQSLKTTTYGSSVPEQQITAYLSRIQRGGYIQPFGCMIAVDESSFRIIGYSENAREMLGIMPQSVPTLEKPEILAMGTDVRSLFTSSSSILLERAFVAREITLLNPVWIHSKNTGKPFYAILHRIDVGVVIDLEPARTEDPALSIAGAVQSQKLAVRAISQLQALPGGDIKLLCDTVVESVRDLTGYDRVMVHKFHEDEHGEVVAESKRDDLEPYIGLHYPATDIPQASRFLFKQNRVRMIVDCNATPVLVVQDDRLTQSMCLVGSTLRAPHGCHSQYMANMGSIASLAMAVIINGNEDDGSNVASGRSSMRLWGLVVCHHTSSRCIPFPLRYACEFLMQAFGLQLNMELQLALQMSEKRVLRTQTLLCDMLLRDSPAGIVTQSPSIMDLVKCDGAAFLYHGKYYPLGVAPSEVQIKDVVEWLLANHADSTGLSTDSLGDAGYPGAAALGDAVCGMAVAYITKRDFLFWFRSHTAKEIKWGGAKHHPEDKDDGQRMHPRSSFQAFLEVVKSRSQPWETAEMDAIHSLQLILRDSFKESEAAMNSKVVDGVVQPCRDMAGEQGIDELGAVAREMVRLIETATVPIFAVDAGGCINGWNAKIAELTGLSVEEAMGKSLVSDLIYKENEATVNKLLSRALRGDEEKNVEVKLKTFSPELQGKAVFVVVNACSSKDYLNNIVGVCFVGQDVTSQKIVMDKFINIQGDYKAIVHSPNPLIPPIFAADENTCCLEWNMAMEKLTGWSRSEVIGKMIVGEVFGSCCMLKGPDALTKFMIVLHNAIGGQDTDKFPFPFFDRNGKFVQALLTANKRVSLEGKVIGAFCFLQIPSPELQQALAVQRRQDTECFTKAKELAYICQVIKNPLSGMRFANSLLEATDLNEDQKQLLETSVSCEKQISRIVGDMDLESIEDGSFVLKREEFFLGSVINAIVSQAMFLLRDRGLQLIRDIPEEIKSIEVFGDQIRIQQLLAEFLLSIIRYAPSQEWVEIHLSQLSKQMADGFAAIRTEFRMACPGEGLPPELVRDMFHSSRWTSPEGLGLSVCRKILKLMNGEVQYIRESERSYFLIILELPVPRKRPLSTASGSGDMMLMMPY
Description: pull-down; StrepII-tagged PIF6 forms or PIFNs held on Strep-Tactin Sepharose, 3× Flag-phyB or phyB^Y276H in the mixture; in the dark, 4 °C, 2 h; buffer E (100 mM Tris-HCl pH 8.0, 150 mM NaCl, 1 mM EDTA); SDS-PAGE with Coomassie and zinc-induced fluorescence.

Test [1] deals with T2, phytochrome B (phyB), full length (1‒1172) (Arabidopsis, UniProt P14713 1-1172, PΦB chromophore covalently linked to C357).
T2 construct: Arabidopsis phytochrome B, residues 1-1172, At2g18790; The same protein is Pr in the dark and Pfr after red light; The purification uses Ni-NTA, but no His tag on phyB is described; also called wild-type phyB; phyB-Pr (dark); source: E. coli BL21(DE3), co-expressed with HO1 and HY2, purified (Ni-NTA, anti-FLAG resin, Source Q); not shown: 3× Flag ([residues removed]), N-terminal, kept
T2 sequence (looked up): T1 sequence (looked up) with H276Y
Description: pull-down; StrepII-tagged PIF6 forms or PIFNs held on Strep-Tactin Sepharose, 3× Flag-phyB in the mixture; red light (665 nm, 800 μmol m^-2 s^-1), 4 °C, 2 h; buffer E (100 mM Tris-HCl pH 8.0, 150 mM NaCl, 1 mM EDTA); eluted with D-desthiobiotin; SDS-PAGE with Coomassie and zinc-induced fluorescence.

Test [2] concerns the target T3, phyBN (residues 1‒908 of phyB) (Arabidopsis, UniProt P14713 1-908, PΦB chromophore covalently bound).
T3 construct: Arabidopsis phytochrome B, residues 1-908 (HKRD truncated); also called phyBN-Pfr (red light-irradiated); source: E. coli BL21(DE3), co-expressed with HO1 and HY2, purified; not shown: 3× Flag, N-terminal, kept
T3 sequence (looked up): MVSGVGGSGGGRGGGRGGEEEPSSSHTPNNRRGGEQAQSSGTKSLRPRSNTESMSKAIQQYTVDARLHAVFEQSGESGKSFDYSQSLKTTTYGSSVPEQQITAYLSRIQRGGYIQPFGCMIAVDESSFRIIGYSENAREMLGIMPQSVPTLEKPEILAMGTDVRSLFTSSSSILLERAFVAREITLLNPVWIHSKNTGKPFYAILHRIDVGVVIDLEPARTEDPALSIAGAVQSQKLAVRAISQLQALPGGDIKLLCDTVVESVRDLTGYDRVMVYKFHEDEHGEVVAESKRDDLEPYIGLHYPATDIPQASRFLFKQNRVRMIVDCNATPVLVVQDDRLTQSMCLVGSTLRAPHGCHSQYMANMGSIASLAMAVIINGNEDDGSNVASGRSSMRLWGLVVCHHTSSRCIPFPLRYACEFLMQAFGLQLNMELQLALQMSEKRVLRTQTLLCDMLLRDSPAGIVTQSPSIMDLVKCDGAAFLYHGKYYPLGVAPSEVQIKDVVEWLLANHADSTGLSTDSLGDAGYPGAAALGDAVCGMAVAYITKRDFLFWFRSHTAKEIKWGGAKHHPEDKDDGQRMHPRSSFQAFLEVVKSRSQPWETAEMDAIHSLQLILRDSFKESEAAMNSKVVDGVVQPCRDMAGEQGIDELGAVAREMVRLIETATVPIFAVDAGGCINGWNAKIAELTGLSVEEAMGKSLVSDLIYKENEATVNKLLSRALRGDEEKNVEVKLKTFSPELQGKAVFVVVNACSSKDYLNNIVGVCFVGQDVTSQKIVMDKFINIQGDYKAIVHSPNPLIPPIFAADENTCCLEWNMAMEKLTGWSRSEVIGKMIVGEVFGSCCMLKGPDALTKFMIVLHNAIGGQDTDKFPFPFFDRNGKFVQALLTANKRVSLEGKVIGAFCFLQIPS
Description: pull-down; StrepII-tagged PIF6N (1-64) and its mutants used to pull down Flag-tagged phyBN (Pfr) and its site-directed mutants; SDS-PAGE with Coomassie and zinc-induced fluorescence.

Test [3] concerns the target T2, phytochrome B (phyB), full length …. The experiment in a line: SEC; Superose 6 Increase 10/300 GL; 25 mM Tris-HCl pH 8.0, 150 mM NaCl, 5 mM DTT; red light-irradiated phyB; peak fractions on SDS-PAGE. In general terms: Size exclusion chromatography separates by hydrodynamic size, large species first.

Where a chain is given by its changes, count along the chain named.

B1: PIF6αΔC (1‒247) (domain or fragment, Arabidopsis, UniProt Q8L5W7 1-247, looked up)
chain: MMFLPTDYCCRLSDQEYMELVFENGQILAKGQRSNVSLHNQRTKSIMDLYEAEYNEDFMKSIIHGGGGAITNLGDTQVVPQSHVAAAHETNMLESNKHVDDSETLKASSSKRMMVDYHNRKKIKFIPPDEQSVVADRSFKLGFDTSSVGFTEDSEGSMYLSSSLDDESDDARPQVPARTRKALVKRKRNAEAYNSPERNQRNDINKKMRTLQNLLPNSHKDDNESMLDEAINYMTNLQLQVQMMTMG
notes: Arabidopsis PIF6α, residues 1-247; also called PIF6ΔC; C-terminus-truncated PIF6α; source: E. coli BL21(DE3), purified (Ni-NTA, Strep-Tactin, Source Q); not shown: StrepII, C-terminal, kept
Turning to B1, the binding result with phyB^Y276H, full length is given as “binds”; in test [1], “binds”.

B2: PIF6N (1‒64) (domain or fragment, Arabidopsis, UniProt Q8L5W7 1-64, looked up)
chain: MMFLPTDYCCRLSDQEYMELVFENGQILAKGQRSNVSLHNQRTKSIMDLYEAEYNEDFMKSIIH
notes: Arabidopsis PIF6, residues 1-64 (methods of the pull-down); the legends call PIF6N residues 1-60 and the results R11-S60; Probably in the modified pET15b vector (N-terminal His6, C-terminal StrepII) like the other PIFNs; also called N-terminus of PIF6β; source: E. coli BL21(DE3), purified
With B2, the binding result in test [2] and in test [3] was “binds” in each case.
